Test results: patent US9518103B2, “Optogenetic probes for measuring membrane potential” (President and Fellows of Harvard College, priority 2014, dated 2016)
Substitutions are numbered along the chain they refer to. In names and notes the source's numbering stands. Where two headings read alike, the source gives them in different places.

B1: QuasAr1: Archaerhodopsin 3 variant with mutations P60S, T80S, D95H, D106H, F161V; genetically encoded voltage indicator (protein)
chain: MDPIALQAGYDLLGDGRPETLWLGIGTLLMLIGTFYFLVRGWGVTDKDAREYYAVTILVSGIASAAYLSMFFGIGLTEVSVGGEMLDIYYARYAHWLFTTPLLLLHLALLAKVDRVTIGTLVGVDALMIVTGLIGALSHTAIARYSWWLFSTICMIVVLYVLATSLRSAAKERGPEVASTFNTLTALVLVLWTAYPILWIIGTEGAGVVGLGIETLLFMVLDVTAKVGFGFILLRSRAILGDTEAPEPSAGADVSAAD
B2: QuasAr2: Archaerhodopsin 3 variant with mutations P60S, T80S, D95Q, D106H, F161V; genetically encoded voltage indicator (protein)
chain: B1 chain with H95Q

How the values were obtained:
[1] = Quantum yield of solubilized protein (Cy5 reference); type: physicochemical; conditions: for Quantum yield / Quantum yield relative to Arch D95N: excitation at 600 nm
Procedure: Solubilization and spectroscopic characterization of QuasAr1 and QuasAr: E. coli expressing QuasAr1 and QuasAr2 were grown in 12 mL LB medium with 200 μg/ml ampicillin overnight. The next day, 12 mL of liquid LB medium containing 50 μM retinal, 200 μg/ml ampicillin and 0.1% arabinose was added into the overnight culture, followed by additional incubation at 37° C. for 4 hours. The cell pellets were collected by centrifugation and lysed by suspension in B-PER solution (Pierce). The cytoplasmic fraction was discarded after centrifugation and the colored insoluble fraction was resuspended in phosphate buffered saline (PBS) containing 1.5% n-dodecyl-β-D-maltopyranoside (Affymetrix, Inc.). The suspension was homogenized by an ultrasonic homogenizer and centrifuged (17,000 g for 15 mins, 4° C.). The solubilized protein in the supernatant was used for in vitro spectroscopic characterization.
Absorption spectra were recorded on a DU-800 UV-visible spectrophotometer (Beckman) and fluorescence spectra were recorded on a Safire2 plate reader (Tecan). Cy5 carboxylic acid (Cyandye) was used as the reference for quantum yield measurement. Quantum yield measurements were performed on a series of dilutions of each protein solution and standard, with absorbance values ranging from 0.01 to 0.05 at 600 nm. The fluorescence emission spectra of each dilution were recorded with excitation at 600 nm and the total fluorescence intensities obtained by integration. Integrated fluorescence intensity vs. absorbance was plotted for each protein and each standard. Quantum yields, Φ, were determined from the slopes (S) of each line using the equation: Φprotein=Φstandard×(Sprotein/Sstandard).

[2] = system: cultured rat hippocampal neurons; conditions: for signal-to-noise ratio (SNR) for single APs: 640 nm; for photobleaching time constant: continuous illumination 640 nm; for broadening of optically recorded AP relative to electrical waveform at 70% maximum depolarization: room temperature, 2 kHz frame rate; for r.m.s. temporal jitter of AP timing relative to patch clamp: sub-frame interpolation
[3] = system: cultured rat hippocampal neurons; assay: Single-trial detection of neuronal action potentials with eFRET GEVIs; type: cell-based; conditions: 3 W/cm^2 illumination, exposure times compatible with single action potentials
Description: We further characterized the most sensitive eFRET voltage sensors via transient transfection in cultured rat hippocampal neurons. […] Injection of current pulses via a patch pipette (500-600 pA, 5-10 ms, 5 Hz) induced trains of action potentials, which induced downward fluorescence transients of 12% (YFP), 12% (mOrange2), 7% (mRuby2).
The signal-to-noise ratio (SNR) of fluorescence detection, defined as the ratio of the peak amplitude to standard deviation of fluorescence at the baseline, was 6.6 (YFP), 11.6 (mOrange2), and 10.5 (mRuby2). In all cases images were acquired at 1 kHz with 3 W/cm^2 illumination intensity. Previous measurements with QuasAr2 reported an SNR of 30-70 at the same bandwidth but with 800 W/cm^2 illumination.

Molecule | fluorescence quantum yield enhanced relative to Arch(D95N) [1] | Quantum yield [1] | Quantum yield relative to Arch D95N [1] | equivalent electrical noise level ([2]; 300 W/cm^2) | signal-to-noise ratio (SNR) for single APs ([2]; 300 W/cm^2, 1 kHz frame rate) | signal-to-noise ratio (SNR) for single APs ([2]; 800 W/cm^2, 1 kHz frame rate) | equivalent electrical noise level ([2]; 800 W/cm^2) | photobleaching time constant ([2]; 300 W/cm^2) | r.m.s. error in timing ([2]; optically induced APs, soma, sub-frame interpolation vs patch clamp) | broadening of optically recorded AP relative to electrical waveform at 70% maximum depolarization ([2]; mean±s.d.) | r.m.s. temporal jitter of AP timing relative to patch clamp [2] | direct fluorescence [3] | single-trial SNR ([2]; 34° C., 640 nm 300 W/cm^2) | broadening of optically recorded AP relative to electrical waveform ([2]; 34° C., mean±s.d.) | fidelity of AP reporting (red light phototoxicity test) ([2]; continuous illumination at 300 W/cm^2, 30 min)
B1 | 19 fold | 8 × 10^−3 | 19 | 4.3 mV | 21±2 | 32±4 | 3.0 mV | 440 s | 54 μs | did not introduce detectable broadening | 44 μs | – | – | – | –
B2 | 10 fold | 4 × 10^−3 | 10 | 2.2 mV | 41±4 | – | 1.5 mV | 1020 s | – | 650±150 μs | 61 μs | not detectable | 41±3 | 180±120 μs | 100%
